Results from US20100150834A1 (BURNHAM INSTITUTE, published 2010).
No end group written: not given here.

What was measured:
[1] = target: EphB1 (receptor of Table 1); assay: EphB receptor specificity panel (% binding)
[2] = target: EphB2 (receptor of Table 1); assay: EphB receptor specificity panel (% binding)
[3] = target: EphB3 (receptor of Table 1); assay: EphB receptor specificity panel (% binding)
[4] = target: T1, EphB4 (receptor of Table 1) (Mus musculus (Mouse), UniProt P54761 16-539); assay: EphB receptor specificity panel (% binding)
T1 sequence: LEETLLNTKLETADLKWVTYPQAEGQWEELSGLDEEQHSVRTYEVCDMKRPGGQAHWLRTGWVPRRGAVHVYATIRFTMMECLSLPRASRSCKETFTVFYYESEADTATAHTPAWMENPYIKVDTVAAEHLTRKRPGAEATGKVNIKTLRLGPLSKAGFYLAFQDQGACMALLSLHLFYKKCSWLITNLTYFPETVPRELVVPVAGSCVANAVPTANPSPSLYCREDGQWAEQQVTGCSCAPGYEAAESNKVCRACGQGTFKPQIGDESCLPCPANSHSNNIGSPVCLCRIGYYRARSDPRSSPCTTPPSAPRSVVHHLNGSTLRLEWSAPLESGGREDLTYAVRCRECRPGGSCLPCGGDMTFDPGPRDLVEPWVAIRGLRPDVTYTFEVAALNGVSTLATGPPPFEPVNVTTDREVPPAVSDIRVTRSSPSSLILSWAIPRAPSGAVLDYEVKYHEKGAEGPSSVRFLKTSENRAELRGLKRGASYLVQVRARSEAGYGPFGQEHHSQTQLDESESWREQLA

[5] = target: EphB6 (receptor of Table 1); assay: EphB receptor specificity panel (% binding)
[6] = target: EphB1 (receptor of Table 1); assay: inhibition of ephrin-B2 AP binding to EphB1 (panning receptor); biotinylated and non-biotinylated peptide gave the same result
Target sequence in this assay (Q8CBF3 18-540): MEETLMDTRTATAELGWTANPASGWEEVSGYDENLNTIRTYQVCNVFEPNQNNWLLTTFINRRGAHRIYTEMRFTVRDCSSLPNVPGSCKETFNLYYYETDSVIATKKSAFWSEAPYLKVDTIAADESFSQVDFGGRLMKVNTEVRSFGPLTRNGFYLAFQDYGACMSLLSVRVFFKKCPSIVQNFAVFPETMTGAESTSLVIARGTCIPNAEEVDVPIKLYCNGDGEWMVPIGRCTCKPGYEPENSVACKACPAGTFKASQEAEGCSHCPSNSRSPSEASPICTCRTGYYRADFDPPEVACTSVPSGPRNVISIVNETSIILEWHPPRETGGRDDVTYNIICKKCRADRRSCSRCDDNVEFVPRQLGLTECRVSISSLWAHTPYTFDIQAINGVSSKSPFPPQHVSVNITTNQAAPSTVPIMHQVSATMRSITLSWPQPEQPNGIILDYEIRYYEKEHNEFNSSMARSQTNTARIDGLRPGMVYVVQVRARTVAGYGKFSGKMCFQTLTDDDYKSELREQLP

[7] = target: T1, EphB4 (receptor of Table 1); assay: inhibition of ephrin-B2 AP binding to EphB4 (panning receptor); limited by solubility
[8] = target: T1, EphB4 (receptor of Table 1); assay: inhibition of ephrin-B2 AP binding to EphB4 (panning receptor); non-biotinylated peptide
[9] = target: EphB1 (receptor of Table 1); assay: inhibition of ephrin-B2 AP binding to EphB1 (panning receptor)
Target sequence in this assay (Q8CBF3 18-540): as above

[10] = target: T1, EphB4 (receptor of Table 1); assay: inhibition of ephrin-B2 AP binding to EphB4 (panning receptor); biotinylated peptide
murine EphB4 ectodomain = target: T2, murine EphB4 ectodomain (murine, UniProt P54761 16-539); assay: inhibition of murine ephrin-B2 AP binding to immobilised murine EphB4 ectodomain
T2 construct: extracellular domain; Coated on wells; also called immobilized EphB4 receptor ectodomain
T2 sequence (looked up): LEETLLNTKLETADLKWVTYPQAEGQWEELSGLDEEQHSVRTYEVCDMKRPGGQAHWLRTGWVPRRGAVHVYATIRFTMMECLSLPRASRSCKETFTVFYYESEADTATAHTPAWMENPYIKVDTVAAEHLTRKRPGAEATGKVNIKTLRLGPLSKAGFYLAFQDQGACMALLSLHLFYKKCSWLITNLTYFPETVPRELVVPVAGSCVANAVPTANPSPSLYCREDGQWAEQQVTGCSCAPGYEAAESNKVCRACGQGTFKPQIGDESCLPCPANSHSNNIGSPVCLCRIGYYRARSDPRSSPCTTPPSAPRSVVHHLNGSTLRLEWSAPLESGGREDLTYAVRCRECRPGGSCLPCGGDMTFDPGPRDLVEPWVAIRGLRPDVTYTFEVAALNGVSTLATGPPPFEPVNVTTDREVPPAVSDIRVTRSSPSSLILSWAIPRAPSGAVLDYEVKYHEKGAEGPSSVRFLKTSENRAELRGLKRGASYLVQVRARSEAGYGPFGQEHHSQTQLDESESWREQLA

[11] = target: T3, murine EphB4-Alkaline Phosphatase (murine, UniProt P54761 16-539); assay: competition ELISA: murine EphB4-AP binding to immobilised murine ephrin-B2-Fc
T3 construct: also called EphB4-AP; EphB4 AP; not shown: alkaline phosphatase
T3 sequence (looked up): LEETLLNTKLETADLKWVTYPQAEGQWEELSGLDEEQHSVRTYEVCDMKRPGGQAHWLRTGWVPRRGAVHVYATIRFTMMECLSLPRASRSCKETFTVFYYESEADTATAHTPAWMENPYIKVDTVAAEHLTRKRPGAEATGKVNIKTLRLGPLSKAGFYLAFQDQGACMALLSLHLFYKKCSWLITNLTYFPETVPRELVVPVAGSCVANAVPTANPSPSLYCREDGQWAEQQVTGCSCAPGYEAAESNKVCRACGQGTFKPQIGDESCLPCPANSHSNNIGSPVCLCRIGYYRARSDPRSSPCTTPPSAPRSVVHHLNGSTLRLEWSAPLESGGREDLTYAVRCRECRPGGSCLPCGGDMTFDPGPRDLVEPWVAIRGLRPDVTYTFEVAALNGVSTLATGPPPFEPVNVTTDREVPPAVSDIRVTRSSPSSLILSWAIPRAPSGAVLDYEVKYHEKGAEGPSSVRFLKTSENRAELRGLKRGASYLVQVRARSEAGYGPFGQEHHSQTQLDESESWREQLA

[12] = target: EphB2 (receptor of Table 1); assay: inhibition of ephrin-B2 AP binding to EphB2 (panning receptor); biotinylated and non-biotinylated peptide gave the same result

Row | Binder | % Binding [1] [%] | % Binding [2] [%] | % Binding [3] [%] | % Binding [4] [%] | % Binding [5] [%] | other results
1 | EWLSPNLAPSVR (Panned on EphB1; Footnote e: biotinylated and non-biotinylated peptides gave the same IC50) [EWLSPNLAPSVR peptide (SEQ ID NO:1)] | 100 | 2 | 1 | 1 | 0 | IC50 [6]: ~10 µM
2 | TYFDFQAWSIRA (Panned on EphB4) [TYFDFQAWSIRA peptide (SEQ ID NO:22)] | 10 | 21 | 18 | 100 | 30 | IC50 [7]: > 50 µM
3 | TNYLFSPNGPIA (Panned on EphB4; non-biotinylated form) [TNYLFSPNGPIA peptide (SEQ ID NO:24)] | 5 | 3 | 3 | 100 | 7 | IC50 [8]: 150 µM
4 | AHTFPYPHPKPH (Panned on EphB1) [AHTFPYPHPKPH peptide (SEQ ID NO:3)] | 100 | 4 | 8 | 1 | 0 | IC50 [9]: ~150 µM
5 | TNYLFSPNGPIA (also: biotin, position not given here, Footnote g: the ~50 µM value was obtained with the biotinylated peptide) [biotinylated TNYLFSPNGPIA peptide (SEQ ID NO:24)] | – | – | – | – | – | IC50 [10]: ~50 µM
6 | TNYLFSPNGPIARAW (Synthetic, not biotinylated) [TNYL-RAW peptide TNYLFSPNGPIARAW (SEQ ID NO:39)] | – | – | – | – | – | IC50 (murine EphB4 ectodomain): ~0.04 µM; IC50 [11]: 0.016 µM
7 | SNEWIQPRLPQH (Panned on EphB2; Footnote e: biotinylated and non-biotinylated peptides gave the same IC50) [SNEWIQPRLPQH peptide (SEQ ID NO:18)] | – | – | – | – | – | IC50 [12]: ~15 µM
